Data from paper PMC12207404, “Significance of the CTP-binding motif for the interactions of S. coelicolor ParB with DNA, chromosome segregation, and sporogenic hyphal growth” (Nucleic Acids Research, 2025).

How the values were obtained:
[1] = tested on: ScParB (Streptomyces coelicolor); test: BLI; details: no CTP, BLI: 100 mM Tris-HCl pH 8.0, 100 mM NaCl, 1 mM MgCl2, 0.005% Tween 20, 30 C, EMSA: 100 mM Tris-HCl pH 8.0, 100 mM NaCl, 10% glycerol, 1 mM DTT, 1 mM EDTA …
[2] = target: T1, ScParB (S. coelicolor ParB) (Streptomyces coelicolor, UniProt Q9RFM2); test: TNP-CTP fluorescence enhancement at […] nm; format: binding; details: 1 μM protein, 5 μM TNP-CTP, no DNA, 1 mM MgCl2, pH 8.0, room temperature; labelled compound
T1 construct: full-length; N-terminal GST fusion from pGEX-6P-1_parB, GST removed with PreScission protease; expressed in E. coli BL21 pLysS; dimer
T1 sequence (Q9RFM2 entry or part of it): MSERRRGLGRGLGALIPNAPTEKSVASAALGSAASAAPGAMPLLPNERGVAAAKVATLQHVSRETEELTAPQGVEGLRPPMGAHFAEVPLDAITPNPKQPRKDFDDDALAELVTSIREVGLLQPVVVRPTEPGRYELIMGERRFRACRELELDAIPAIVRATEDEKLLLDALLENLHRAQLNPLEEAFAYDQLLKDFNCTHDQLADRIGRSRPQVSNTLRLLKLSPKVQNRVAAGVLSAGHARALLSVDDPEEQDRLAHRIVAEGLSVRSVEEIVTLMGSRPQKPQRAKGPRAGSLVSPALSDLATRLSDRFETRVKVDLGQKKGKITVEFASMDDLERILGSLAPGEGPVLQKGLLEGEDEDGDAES

[3] = target: the molecule itself; test: cross-linking; glutaraldehyde (0.03%, 0.06% or 0.12%), 4 μM ScParB variant, 100 mM Tris-HCl pH 8.0, 100 mM NaCl, 1 mM MgCl2, 0.005% Tween 20, 30°C, 30 min; optionally 4 mM CTP or 4 μM 34-bp parS dsDNA; SDS-PAGE, Coomassie, percent of dimer and HMW complex of the lane's total signal
[4] = target: the molecule itself; test: two-hybrid; bacterial two-hybrid (BACTH): pUT18C and pKT25 derivatives cotransformed into E. coli BTH101; blue colonies on LB agar with X-gal and 0.5 mM IPTG, 30°C, and β-galactosidase activity (Miller units)

## 300-bp parS, one-end biotin
[1]
  Kd: 271 nM

## 300-bp parS, two-end biotin
[1]; Discussion prints 176
  Kd: 167 nM

## Nc1ccn([C@@H]2O[C@H](COP(=O)(O)OP(=O)(O)OP(=O)(O)O)[C@H]3OC4(O[C@H]32)C([N+](=O)[O-])=CC(=[N+]([O-])O)C=C4[N+](=O)[O-])c(=O)n1 (some centres unmarked) [TNP-CTP, 2′,3′-O-trinitrophenyl-cytidine-5′-triphosphate]
[2]
  relative fluorescence (RU): 1.16 ± 0.06 RU

B1: ScParB^R142A, purified recombinant (natural protein)
chain: MSERRRGLGRGLGALIPNAPTEKSVASAALGSAASAAPGAMPLLPNERGVAAAKVATLQHVSRETEELTAPQGVEGLRPPMGAHFAEVPLDAITPNPKQPRKDFDDDALAELVTSIREVGLLQPVVVRPTEPGRYELIMGEARFRACRELELDAIPAIVRATEDEKLLLDALLENLHRAQLNPLEEAFAYDQLLKDFNCTHDQLADRIGRSRPQVSNTLRLLKLSPKVQNRVAAGVLSAGHARALLSVDDPEEQDRLAHRIVAEGLSVRSVEEIVTLMGSRPQKPQRAKGPRAGSLVSPALSDLATRLSDRFETRVKVDLGQKKGKITVEFASMDDLERILGSLAPGEGPVLQKGLLEGEDEDGDAES
notes: source: E. coli BL21 (DE) pLysS, purified (Glutathione Sepharose 4B, cleaved with PreScission protease); not shown: GST, N-terminal, cleaved
[3]
  fold enhancement of dimerization against wild-type ScParB: ≤ 3 fold

B2: ScParB^R142A, bacterial two-hybrid fusion (natural protein)
chain: MSERRRGLGRGLGALIPNAPTEKSVASAALGSAASAAPGAMPLLPNERGVAAAKVATLQHVSRETEELTAPQGVEGLRPPMGAHFAEVPLDAITPNPKQPRKDFDDDALAELVTSIREVGLLQPVVVRPTEPGRYELIMGEARFRACRELELDAIPAIVRATEDEKLLLDALLENLHRAQLNPLEEAFAYDQLLKDFNCTHDQLADRIGRSRPQVSNTLRLLKLSPKVQNRVAAGVLSAGHARALLSVDDPEEQDRLAHRIVAEGLSVRSVEEIVTLMGSRPQKPQRAKGPRAGSLVSPALSDLATRLSDRFETRVKVDLGQKKGKITVEFASMDDLERILGSLAPGEGPVLQKGLLEGEDEDGDAES
notes: also called R142A-substituted variant; source: bacterial two-hybrid fusion (pUT18C and pKT25 derivatives), in E. coli BTH101
[4]
  fold enhancement of dimerization against wild-type ScParB: ≤ 3 fold
